Measurements taken from the supplement of paper PMC10126150.
± gives the standard deviation of the averaged measurements.

Each sequence was assayed on ATP (assay: switch fluorescence ratio, 500 uM ATP over buffer (Cy3 cluster intensity, sum of 5 cycles each) (fold (ratio)); higher = stronger signal-on switching upon ATP binding; sequences stand for … in TCGTCGGCAGCGTCAGATGTGTATAAGAGACAGTTTTTTTTTTTTTTTTTTTTTTTTT…TC). Conditions: aptamer strand: ATP DNA aptamer (quencher-CACCTGGGGGAGTATTGCGGAGGAAGG + anchor), 100 nM annealed; ATP concentration: 500 uM.
Outline: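 Cy3-labelled switching-strand clusters on a modified Illumina MiSeq flow-cell were annealed to 100 nM quencher-labelled ATP aptamer and imaged first in selection buffer, then after 15 min with 500 uM ATP at 22 °C. NaOH stripping and re-annealing separated each of five buffer/ATP cycles, and clusters outside 100-1000 RFU were excluded. The fluorescence ratio sums target-cycle Cy3 intensity over buffer-cycle Cy3 intensity per cluster and averages it per switch-domain sequence.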
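Also: ATP exposure 15 min at 22 °C before imaging.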

Row | Sequence | switch fluorescence ratio
1 | ACTAGTGGGG | 0.996 ± 0.017
2 | GTTAGTACTG | 0.96042 ± 0.00063
3 | TTTTGAGTGT | 0.995 ± 0.051
4 | GTTTCGTTGT | 0.9798 ± 0.0019
5 | CTCTTTCGAT | 1.03 ± 0.03
6 | TATCGGCAGC | 1.07 ± 0.043
7 | ACTGGTGACT | 1.01 ± 0.037
8 | TGTGCTAAGT | 0.985 ± 0.026
9 | TACAAGATGT | 1.01 ± 0.029
10 | CTGTGGGAAG | 0.995 ± 0.056
11 | GGTATAAATT | 0.939 ± 0.011
12 | CGCTTATCCT | 1.1 ± 0.038
13 | TTCATGTTGG | 0.998 ± 0.019
14 | GGGTAAGGGA | 0.961 ± 0.013
15 | GCGTGACGTA | 1 ± 0.088
16 | TTGTGGCTTA | 0.98 ± 0.036
17 | TTAGAGACGC | 1.06 ± 0.021
18 | ATATAAAGGA | 1.01 ± 0.024
19 | TGGGGTAGCT | 0.997 ± 0.015
20 | TGTGGGGGGC | 1 ± 0.038
21 | TTTGAACTGT | 1.18 ± 0.14
22 | TTTTCATCAT | 1.01 ± 0.031
23 | TAGGTAGCGG | 0.9996 ± 0.0076

Row | Sequence | switch fluorescence ratio
24 | GGAAGGGATG | 1 ± 0.026
25 | CGGAAGCTCT | 1.036 ± 0.0028
26 | AGGGGGTAAA | 0.975 ± 0.021
27 | TATTAGACGA | 0.963 ± 0.015
28 | TTTGGTTGAG | 1 ± 0.047
29 | GAGCTTGCGA | 1.03 ± 0.044
30 | TTTCTGGTT | 1.01 ± 0.038
31 | GTGTAACAGA | 1 ± 0.013
32 | TTAAAACGGG | 0.969 ± 0.037
33 | TCTTAGAGGT | 0.983 ± 0.026
34 | GGATTATGGC | 0.943 ± 0.061
35 | ACATTATTGT | 0.982 ± 0.011
36 | ACATGGGGAA | 0.994 ± 0.012
37 | TTAGGTAATA | 1 ± 0.022
38 | TTGAATCGAC | 1.08 ± 0.042
39 | CTTATTAACT | 0.9954 ± 0.0069
40 | AGCTTTTGAA | 1.006 ± 0.0026
41 | AGCTTTGTTT | 1.01 ± 0.013
42 | ATGACTAAGA | 1.006 ± 0.0034
43 | CCAATTTTGG | 0.977 ± 0.013
44 | ATTTACTATA | 1.07 ± 0.0053
45 | AGGTAGGGGG | 0.993 ± 0.019
46 | GTAAGTATGT | 1.01 ± 0.011

Row | Sequence | switch fluorescence ratio
47 | CTCGGAACCT | 1.84 ± 0.22
48 | GGAATTACCG | 1.031 ± 0.0025
49 | GGAAAATTTT | 0.994 ± 0.033
50 | CGGACTGGTT | 1.005 ± 0.0057
51 | ATTGAAAGCA | 1.03 ± 0.025
52 | CATCGAATGC | 1.23 ± 0.12
53 | TGTTACGTTT | 0.992 ± 0.021
54 | AAAAAGATTT | 1.05 ± 0.081
55 | TTATGGTAGC | 0.995 ± 0.015
56 | TTTTGTTGCA | 1.038 ± 0.0056
57 | GCGGGATTGG | 1.001 ± 0.0077
58 | CTAGGTGTGA | 1.07 ± 0.017
59 | GTTGGACGCT | 0.986 ± 0.029
60 | TTAGGCTGAT | 0.981 ± 0.02
61 | ACGGTTAGTC | 1.04 ± 0.016
62 | TTTTCCATTA | 1 ± 0.044
63 | AAACGGGGAG | 0.991 ± 0.021
64 | AGGAGGGGGC | 1 ± 0.048
65 | AAACGCTGGT | 1.01 ± 0.0087
66 | GGTCTGGGTG | 1.08 ± 0.066
67 | CTGTTCCTTT | 1.056 ± 0.0014
68 | CTAAGTTTGA | 1.03 ± 0.037
69 | TTATTGAAGC | 0.983 ± 0.028

Row | Sequence | switch fluorescence ratio
70 | TGGCTTTGCT | 0.962 ± 0.015
71 | TTGAATAAAA | 1.005 ± 0.0096
72 | GAGGTAGGCC | 1.048 ± 0.0066
73 | ACATTGTTAT | 1.07 ± 0.1
74 | CAATAAAGCT | 1.07 ± 0.041
75 | GGTTGCGTTT | 0.9997 ± 0.001
76 | AAGGGCCTGG | 0.982 ± 0.029
77 | TGAGGAACCT | 1.77 ± 0.098
78 | TCTTATTTTT | 1.01 ± 0.025
79 | ACAGTGTGGT | 1.07 ± 0.031
80 | TTTTTTTTG | 0.987 ± 0.019
81 | TATCATGTGT | 0.977 ± 0.03
82 | GGTAATTGTG | 0.987 ± 0.016
83 | AGTGTTGCAG | 0.98 ± 0.048
84 | ACTCAAACCA | 1.14 ± 0.035
85 | CAGGTTGTGT | 0.99 ± 0.031
86 | GCTTGTAGTT | 0.9865 ± 0.0072
87 | GGATGGTGCA | 0.94 ± 0.062
88 | GGAGAGGGTT | 1.022 ± 0.0044
89 | GCGATGTTTG | 0.998 ± 0.023
90 | ATACTTATTT | 1.03 ± 0.018
91 | GGACTGGAAG | 1.19 ± 0.051
92 | GAGGAGAAGA | 1.02 ± 0.027

Row | Sequence | switch fluorescence ratio
93 | CTGTGTGCCT | 0.995 ± 0.07
94 | GAGTTGCAGG | 1.01 ± 0.032
95 | ATTATGGTCA | 0.994 ± 0.023
96 | ATGGGGGGCT | 0.987 ± 0.028
97 | GGCCGGGGGC | 0.994 ± 0.047
98 | CCTGGGTAGC | 1.1 ± 0.045
99 | GTGGGGAGCT | 1.03 ± 0.061
100 | ATTAAGGTCA | 1.064 ± 0.0069
101 | ACAATGTGTG | 0.985 ± 0.038
102 | CGATTTTGA | 0.969 ± 0.043
103 | TTTTATTATG | 1 ± 0.022
104 | GACCACTATC | 1.1 ± 0.02
105 | TCGGGTGAAC | 0.983 ± 0.041
106 | TTGGCACGAT | 1.012 ± 0.0011
107 | CTTTGTTGGT | 0.9831 ± 0.0082
108 | AACTGTAAAT | 1.25 ± 0.2
109 | GACTATTGAA | 1 ± 0.056
110 | GGTATTCTGT | 0.951 ± 0.03
111 | GTGTGGTGCA | 0.9802 ± 0.0045
112 | CCTATCGAAT | 1.97 ± 1.1
113 | GGTTTACGTC | 0.9998 ± 0.0082
114 | ATTACCGGGG | 1.05 ± 0.035
115 | GGAGAGGGCG | 0.991 ± 0.066

Row | Sequence | switch fluorescence ratio
116 | GGATGTGTAA | 1.007 ± 0.007
117 | GCCAGATGCG | 1.05 ± 0.064
118 | CGCCACTGTG | 1.06 ± 0.044
119 | TACGAGCGAA | 1.34 ± 0.014
120 | TGCCTGTGCG | 1.04 ± 0.031
121 | TTTAGCTAGT | 1.01 ± 0.032
122 | GTATAAGAGG | 0.991 ± 0.019
123 | CAAGTTTTTT | 0.984 ± 0.016
124 | AGATTTACTT | 0.985 ± 0.014
125 | AGGTGTTGCG | 1.016 ± 0.0056
126 | GACGAGGGGC | 1.18 ± 0.031
127 | AGGGTCGGTG | 0.98 ± 0.027
128 | AAGGCAATTT | 1.02 ± 0.048
129 | AGTTCGTCGT | 0.983 ± 0.015
130 | TTTATGTCGC | 1.01 ± 0.054
131 | TTTCCGTTAT | 2.41 ± 1.9
132 | AGGTGGGGAC | 1.01 ± 0.014
133 | AGGTTAATCT | 1.01 ± 0.018
134 | TATCAATTTT | 1 ± 0.03
135 | AAACATTTTG | 1.02 ± 0.036
136 | TGTATAGGGT | 1.01 ± 0.048
137 | TTTATGTCCG | 1.04 ± 0.042
138 | CGCTGGGGGA | 1.055 ± 0.0022

Row | Sequence | switch fluorescence ratio
139 | CCTTGTTATC | 1.1 ± 0.1
140 | TCCGGCTTTG | 0.953 ± 0.075
141 | GGGGATGGTT | 0.974 ± 0.03
142 | CTCTAATTTT | 1.013 ± 0.0052
143 | AGTTGTGAGG | 1.01 ± 0.026
144 | GGGGATCCCC | 1.03 ± 0.019
145 | TTAGGGGTCG | 1 ± 0.041
146 | TTGCACGGGC | 1.007 ± 0.0052
147 | TGGTTAGTTT | 0.997 ± 0.016
148 | GCAATTCCCG | 2.17 ± 0.049
149 | AAGGGGATGG | 0.968 ± 0.038
150 | CATGAATATG | 1.01 ± 0.03
151 | GGGCCCGGTT | 1.005 ± 0.0068
152 | TATCGTACAT | 1.11 ± 0.023
153 | CCTTTTTTTT | 1.01 ± 0.011
154 | GAGCGCCCGT | 1.01 ± 0.0017
155 | TTGCCGGGGC | 0.998 ± 0.017
156 | GCGGTTGCGT | 0.971 ± 0.057
157 | TGACGAGGTG | 0.9816 ± 0.0051
